Test results published in patent US6673571B2, “Polypeptides having aminopeptidase activity and nucleic acids encoding same” (Novozymes Biotech, Inc., priority 1997, dated 2004).

How the values were obtained:
[1] = Substrate specificity: initial rates of hydrolysis of para-nitroanilides; format: biochemical; conditions: pH 7.5, 25° C.
Procedure: Stock solutions of 100 mg of each para-nitroanilide per ml of dimethylsulfoxide were diluted with 50 mM sodium phosphate pH 7.5 buffer to concentrations of 2 mg per ml. Where the substrates were incompletely soluble, their suspensions were used (shown with an asterisk in Table 2 below). The reaction of the Sphingomonas capsulata aminopeptidase I with each para-nitroanilide was initiated when a 10 μl aliquot of the enzyme solution in 50 mM sodium phosphate pH 7.0 buffer was added to 190 μl of a substrate solution in a 96 well microtiter plate. Analysis of initial rates of hydrolysis of the para-nitroanilides was monitored at 405 nm and 25° C. in a THERMOmax Microplate Reader (Molecular Devices Corp., Sunnyvale, Calif., USA).

[2] = tested on: soy protein; assay: Degree of hydrolysis (DH) in soy protein hydrolysis, OPA method; format: biochemical, soy bean; conditions: for DH: 50° C., 18 hours
Procedure: The degree of hydrolysis (DH) of the soy protein was determined as follows. The DH, defined as described in by Adler-Nissen (1986, Enzymic Hydrolysis of Food Proteins, Elsevier Applied Science Publishers), was determined by reaction of the supernatant with OPA (ortho-phthaldialdehyde, Sigma Chemical Co., St. Louis, Mo.) essentially as described by Church et al., 1983, Journal of Dairy Science 66: 1219-1227 with correction factors as determined by Adler-Nissen, 1979, Agricultural and Food Chemistry 27: 1256-1262.
The aminopeptidase I was added in increasing dosage to either a low-background (1.5% of the substrate protein) or a high background (6% of the substrate protein) of FLAVOURZYME 1000L™ and a dosage of ALCALASE 2.4L® of 1.5% of the substrate protein. The experiments were carried out as described below:
(§1) Hydrolysis was carried out on a 10 ml scale at 50° C. for 18 hours. The initial pH was 7 with no pH readjustment during hydrolysis. Inactivation of the enzyme was carried out at 85° C. for 3 minutes in a water bath. The substrate concentration was 2% protein from soy bean meal. The substrate was heat treated in a water bath at 85° C. for 3 minutes. The enzymes used with FLAVOURZYME 1000L™ and ALCALASE 2.4L® described above were crude Sphingomonas capsulata aminopeptidase I powder (see Example 1) and the purified Sphingomonas capsulata aminopeptidase I described in Example 4.

[3] = tested on: soy protein; assay: Release of free amino acids (FAA) in soy protein hydrolysis; format: biochemical, soy bean
Procedure: as §1
Hyp, methioninsulphonic acid, and Trp were not included in the Table due to very fluctuating and uncertain results.

[4] = 1.5% FLAVOURZYME +67 kDa AP versus 6.0% FLAVOURZYME

B1: Sphingomonas capsulata aminopeptidase I: purified aminopeptidase of 67 kDa from Sphingomonas capsulata IFO 12533; deduced amino acid sequence SEQ ID NO:2 (protein)
chain: MRKTPQGIGLLSALSTSTLALATLILAQPALAQVQPASNSRPMAVPIAHGVPDAQDVPYPGTIGLQIDATDLATGAFRVVETVPVAADAKELILQLPAWLPGEHGNRGPVAELAGITFEAKGQKLAWTRDPVEVNAFHIPLPAGTSEVVARFIHTSPLRDSEGRITVTREMLNVQWEKMSLYPAGHYVRQIKVRPTVSFPQGWTVFTALDGKTQSGAGNTVTWAETDYETLVDSPIFAGLYAARHDLGHNVYFDLVADKPELLAIKPENLAAYRNLADEAVGAFGARHFDHYDFLLALTDRMGSIGLEHHRSSENQQEPKSLTDWAAYDWDRNVIAHEFSHSWDGKYRRSAKLWTPDYRQPMQDNLLWVYEGQTQFWGLVLAARSGVQSKDVVLGSLANYAGTFTQTAGRDWRSVEDTTMDPIFAARKPKPYSSLTRNEDYYTEGALVWLEADQIIRDGTGGKKGLDDFAKAFFGVRDGDWGVLTYEFDDVVKTLNGVYPYDWATFLKTRLQTPGQPVPLGGIERGGYKLEFKDEPNPYDKARMADAKVLSLFNSLGVTLDKDGKVTASRWDGPAFKAGLVSGMQVMAVNGDAYDADKLKGAITNAKTGNPGAGRPIELLVKRDDRFVTLPITYADGLRWPWLVRTAPGTAPTGLDKLLAPHASKLPVGKAAK
- Relative activity (%) ([1]; Ala p-nitroanilide): 100%
- Relative activity (%) ([1]; Asp p-nitroanilide): 4.5%
- Relative activity (%) ([1]; Glu* p-nitroanilide (suspension)): 6%
- Relative activity (%) ([1]; Gly* p-nitroanilide (suspension)): 20%
- Relative activity (%) ([1]; Ile p-nitroanilide): 0.5%
- Relative activity (%) ([1]; Leu p-nitroanilide): 18.5%
- Relative activity (%) ([1]; Lys p-nitroanilide): 6%
- Relative activity (%) ([1]; Met p-nitroanilide): 24%
- Relative activity (%) ([1]; Phe* p-nitroanilide (suspension)): 0%
- Relative activity (%) ([1]; Pro p-nitroanilide): 0%
- Relative activity (%) ([1]; Val p-nitroanilide): 0.5%
- % Relative increase in DH ([2]; 1.5% FLAVOURZYME +67 kDa AP): 34.8%
- % Relative increase in DH [2, 4]: −2.2%
- % Relative increase in DH ([2]; 6.0% FLAVOURZYME +67 kDa AP): 14.2%
- DH ([2]; added to high dosage (6%) FLAVOURZYME + 1.5% ALCALASE, from DH 61%): 71%
- DH ([2]; added to low dosage (1.5%) FLAVOURZYME + 1.5% ALCALASE, from DH 44%): 61-62%
- share of the DH increasing effect of the crude enzyme ([2]; high dosage of FLAVOURZYME, (71−61)/(77−61)×100%): 63%
- share of the DH increasing effect of the crude enzyme ([2]; low dosage of FLAVOURZYME, (62−44)/(72−44)×100%): 64%
- effect of adding aminopeptidase I as % of the effect of the crude enzyme ([2]; relative to 1.5% + 0.5% extra FLAVOURZYME, (62−48)/(72−48)×100%): 58%
- effect of aminopeptidase I as % of the effect of the crude enzyme ([2]; relative to 6% + 1% extra FLAVOURZYME, (71−63)/(77−63)×100%): 57%
- % Relative increase in FAA: Ala ([3]; 1.5% FLAVOURZYME +67 kDa AP): 130.3%
- % Relative increase in FAA: Arg ([3]; 1.5% FLAVOURZYME +67 kDa AP): 37.4%
- % Relative increase in FAA: Asn ([3]; 1.5% FLAVOURZYME +67 kDa AP): 32.3%
- % Relative increase in FAA: Asp ([3]; 1.5% FLAVOURZYME +67 kDa AP): 164.5%
- % Relative increase in FAA: Cys ([3]; 1.5% FLAVOURZYME +67 kDa AP): 12.6%
- % Relative increase in FAA: Gln ([3]; 1.5% FLAVOURZYME +67 kDa AP): 138.9%
- % Relative increase in FAA: Glu ([3]; 1.5% FLAVOURZYME +67 kDa AP): 145.9%
- % Relative increase in FAA: Gly ([3]; 1.5% FLAVOURZYME +67 kDa AP): 305.7%
- % Relative increase in FAA: His ([3]; 1.5% FLAVOURZYME +67 kDa AP): 30.3%
- % Relative increase in FAA: Ile ([3]; 1.5% FLAVOURZYME +67 kDa AP): 48.7%
- % Relative increase in FAA: Leu ([3]; 1.5% FLAVOURZYME +67 kDa AP): 35.2%
- % Relative increase in FAA: Lys ([3]; 1.5% FLAVOURZYME +67 kDa AP): 62.4%
- % Relative increase in FAA: Met ([3]; 1.5% FLAVOURZYME +67 kDa AP): −20.0%
- % Relative increase in FAA: Phe ([3]; 1.5% FLAVOURZYME +67 kDa AP): 41.8%
- % Relative increase in FAA: Pro ([3]; 1.5% FLAVOURZYME +67 kDa AP): 32.4%
- % Relative increase in FAA: Ser ([3]; 1.5% FLAVOURZYME +67 kDa AP): 69.3%
- % Relative increase in FAA: Thr ([3]; 1.5% FLAVOURZYME +67 kDa AP): 34.7%
- % Relative increase in FAA: Tyr ([3]; 1.5% FLAVOURZYME +67 kDa AP): 47.6%
- % Relative increase in FAA: Val ([3]; 1.5% FLAVOURZYME +67 kDa AP): 44.0%
- % Relative increase in FAA: total ([3]; 1.5% FLAVOURZYME +67 kDa AP): 64.5%
- % Relative increase in FAA: Ala [3, 4]: 27.3%
- % Relative increase in FAA: Arg [3, 4]: −2.9%
- % Relative increase in FAA: Asn [3, 4]: −15.2%
- % Relative increase in FAA: Asp [3, 4]: 24.2%
- % Relative increase in FAA: Cys [3, 4]: 6.3%
- % Relative increase in FAA: Gln [3, 4]: 9.9%
- % Relative increase in FAA: Glu [3, 4]: 28.7%
- % Relative increase in FAA: Gly [3, 4]: 90.6%
- % Relative increase in FAA: His [3, 4]: −6.8%
- % Relative increase in FAA: Ile [3, 4]: −21.0%
- % Relative increase in FAA: Leu [3, 4]: −9.1%
- % Relative increase in FAA: Lys [3, 4]: −1.4%
- % Relative increase in FAA: Met [3, 4]: −46.7%
- % Relative increase in FAA: Phe [3, 4]: −4.5%
- % Relative increase in FAA: Pro [3, 4]: −39.7%
- % Relative increase in FAA: Ser [3, 4]: 12.5%
- % Relative increase in FAA: Thr [3, 4]: −18.3%
- % Relative increase in FAA: Tyr [3, 4]: −6.9%
- % Relative increase in FAA: Val [3, 4]: −17.7%
- % Relative increase in FAA: total [3, 4]: 0.0%
- % Relative increase in FAA: Ala ([3]; 6.0% FLAVOURZYME +67 kDa AP): 36.5%
- % Relative increase in FAA: Arg ([3]; 6.0% FLAVOURZYME +67 kDa AP): −31.4%
- % Relative increase in FAA: Asn ([3]; 6.0% FLAVOURZYME +67 kDa AP): 7.6%
- % Relative increase in FAA: Asp ([3]; 6.0% FLAVOURZYME +67 kDa AP): 24.8%
- % Relative increase in FAA: Cys ([3]; 6.0% FLAVOURZYME +67 kDa AP): 9.5%
- % Relative increase in FAA: Gln ([3]; 6.0% FLAVOURZYME +67 kDa AP): 28.1%
- % Relative increase in FAA: Glu ([3]; 6.0% FLAVOURZYME +67 kDa AP): 31.3%
- % Relative increase in FAA: Gly ([3]; 6.0% FLAVOURZYME +67 kDa AP): 92.9%
- % Relative increase in FAA: His ([3]; 6.0% FLAVOURZYME +67 kDa AP): 7.5%
- % Relative increase in FAA: Ile ([3]; 6.0% FLAVOURZYME +67 kDa AP): 7.2%
- % Relative increase in FAA: Leu ([3]; 6.0% FLAVOURZYME +67 kDa AP): 5.2%
- % Relative increase in FAA: Lys ([3]; 6.0% FLAVOURZYME +67 kDa AP): 13.8%
- % Relative increase in FAA: Met ([3]; 6.0% FLAVOURZYME +67 kDa AP): 21.1%
- % Relative increase in FAA: Phe ([3]; 6.0% FLAVOURZYME +67 kDa AP): 7.2%
- % Relative increase in FAA: Pro ([3]; 6.0% FLAVOURZYME +67 kDa AP): −11.5%
- % Relative increase in FAA: Ser ([3]; 6.0% FLAVOURZYME +67 kDa AP): 41.7%
- % Relative increase in FAA: Thr ([3]; 6.0% FLAVOURZYME +67 kDa AP): 2.4%
- % Relative increase in FAA: Tyr ([3]; 6.0% FLAVOURZYME +67 kDa AP): 8.5%
- % Relative increase in FAA: Val ([3]; 6.0% FLAVOURZYME +67 kDa AP): 6.3%
- % Relative increase in FAA: total ([3]; 6.0% FLAVOURZYME +67 kDa AP): 10.3%
